# Numbering of substitutions follows the chain as printed. In names and notes the source's numbering stands. Where no end group is shown, it is not given here. CFP = cyan fluorescent protein
# T1: HA-SND1, full-length human, wild type (human, UniProt Q7KZF4 1-910)
# T1 construct: Full-length, HA-tagged; Expressed in HEK293T cells, tested in lysate; also called HA-tagged SND1; WT HA-SND1
# T1 sequence: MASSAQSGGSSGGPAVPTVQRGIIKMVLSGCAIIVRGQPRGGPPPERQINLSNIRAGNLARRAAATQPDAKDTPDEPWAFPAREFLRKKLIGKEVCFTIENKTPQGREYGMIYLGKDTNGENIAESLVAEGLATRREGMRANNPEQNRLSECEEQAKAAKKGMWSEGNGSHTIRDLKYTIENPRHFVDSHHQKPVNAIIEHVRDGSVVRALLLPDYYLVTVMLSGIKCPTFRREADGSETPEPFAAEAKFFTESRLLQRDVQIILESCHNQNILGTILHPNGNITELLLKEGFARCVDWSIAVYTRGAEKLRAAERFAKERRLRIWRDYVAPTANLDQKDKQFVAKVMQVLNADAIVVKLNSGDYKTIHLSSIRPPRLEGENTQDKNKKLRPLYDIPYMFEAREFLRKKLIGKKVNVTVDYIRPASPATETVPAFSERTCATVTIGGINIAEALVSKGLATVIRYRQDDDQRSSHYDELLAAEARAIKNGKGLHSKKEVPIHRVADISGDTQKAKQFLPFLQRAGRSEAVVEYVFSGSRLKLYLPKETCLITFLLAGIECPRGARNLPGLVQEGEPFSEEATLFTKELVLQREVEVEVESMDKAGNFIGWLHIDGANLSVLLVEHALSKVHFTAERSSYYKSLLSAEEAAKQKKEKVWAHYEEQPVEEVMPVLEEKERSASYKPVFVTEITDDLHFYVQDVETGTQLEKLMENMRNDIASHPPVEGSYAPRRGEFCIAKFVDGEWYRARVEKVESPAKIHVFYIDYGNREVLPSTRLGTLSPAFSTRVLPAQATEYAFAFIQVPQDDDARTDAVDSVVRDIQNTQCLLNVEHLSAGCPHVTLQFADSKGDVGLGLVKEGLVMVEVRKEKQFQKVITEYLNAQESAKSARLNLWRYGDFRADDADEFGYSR
# T2: endogenous human SND1 (human breast cancer cells, MDA-MB-231) (human, UniProt Q7KZF4 2-910)
# T2 construct: Endogenous protein in cell lysate; also called endogenous SND1 protein
# T2 sequence: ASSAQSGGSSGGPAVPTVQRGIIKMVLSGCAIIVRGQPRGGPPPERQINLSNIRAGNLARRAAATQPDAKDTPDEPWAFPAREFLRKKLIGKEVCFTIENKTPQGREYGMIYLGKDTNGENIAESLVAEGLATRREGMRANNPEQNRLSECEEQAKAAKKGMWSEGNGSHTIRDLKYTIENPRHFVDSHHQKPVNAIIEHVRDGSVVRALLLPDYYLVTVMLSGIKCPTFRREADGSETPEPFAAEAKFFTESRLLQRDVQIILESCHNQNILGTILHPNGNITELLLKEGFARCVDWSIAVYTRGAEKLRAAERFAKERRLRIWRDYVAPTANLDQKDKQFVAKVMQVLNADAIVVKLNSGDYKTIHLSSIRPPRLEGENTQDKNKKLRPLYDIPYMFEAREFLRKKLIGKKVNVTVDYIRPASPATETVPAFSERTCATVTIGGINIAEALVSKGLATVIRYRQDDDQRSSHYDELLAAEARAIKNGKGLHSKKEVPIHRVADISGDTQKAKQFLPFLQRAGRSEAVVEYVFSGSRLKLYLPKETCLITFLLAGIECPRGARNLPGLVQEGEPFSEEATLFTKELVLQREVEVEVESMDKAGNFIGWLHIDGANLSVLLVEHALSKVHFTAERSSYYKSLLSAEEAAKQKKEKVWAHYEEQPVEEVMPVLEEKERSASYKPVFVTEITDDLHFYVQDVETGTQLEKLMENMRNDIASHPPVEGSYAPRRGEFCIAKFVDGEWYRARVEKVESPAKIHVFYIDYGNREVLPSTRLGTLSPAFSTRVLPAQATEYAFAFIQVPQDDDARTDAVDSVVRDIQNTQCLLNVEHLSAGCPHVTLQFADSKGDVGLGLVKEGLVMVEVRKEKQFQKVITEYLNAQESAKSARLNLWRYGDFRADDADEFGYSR
# B1: Myc-MTDH E399R, full-length human (other)
# chain: MAARSWQDELAQQAEEGSARLREMLSVGLGFLRTELGLDLGLEPKRYPGWVILVGTGALGLLLLFLLGYGWAAACAGSRKKRRSPPRKREEAAAVPAAAPDDLALLKNLRSEEQKKKNRKKLSEKPKPNGRTVEVAEGEAVRTPQSVTAKQPPEIDKKNEKSKKNKKKSKSDAKAVQNSSRHDGKEVDEGAWETKISHREKRQQRKRDKVLTDSGSLDSTIPGIENTITVTTEQLTTASFPVGSKKNKGDSHLNVQVSNFKSGKGDSTLQVSSGLNENLTVNGGGWNEKSVKLSSQISAGEEKWNSVSPASAGKRKAEPSAWSQDTGDANTNGKDWGRSWSDRSIFSGIGSTAEPVSQSTTSDYQWDVSRNQPYIDDEWSGLNGLSSADPNSDWNAPAREWGNWVDEERASLLKSQEPIPDDQKVSDDDKEKGEGALPTGKSKKKKKKKKKQGEDNSTAQDTEELEKEIREDLPVNTSKTRPKQEKAFSLKTISTSDPAEVLVKNSQPIKTLPPATSTEPSVILSKSDSDKSSSQVPPILQETDKSKSNTKQNSVPPSQTKSETSWESPKQIKKKKKARRET
# notes: Full-length, Myc-tagged; also called SPM21
# B2: Myc-MTDH TPM1 (D389R, D393R, W394D), full-length human (other)
# chain: B1 chain with D389R, D393R, W394D, R399E
# notes: Full-length, Myc-tagged; also called TPM1 MTDH
# B3: Myc-MTDH E400R, full-length human (other)
# chain: B1 chain with R399E, E400R
# notes: Full-length, Myc-tagged; also called SPM22
# B4: Myc-MTDH TPM2 (E399R, E400R, W401D), full-length human (other)
# chain: B1 chain with E400R, W401D
# notes: Full-length, Myc-tagged; also called TPM2 MTDH
# Columns and labels:
# [1] = biological target: His-SND1 (16-339), SN1/2 domains, wild type (human) (UniProt Q7KZF4); experiment: GST titration pull-down: GST-MTDH (386-407) on glutathione resin, SND1 (SN1/2) at 10, 3, 1, 0.5, 0.25, 0.12 (the sheet prints mM, paragraph 254 says µM), SDS-PAGE, Coomassie blue
# [2] = biological target: T1, HA-SND1, full-length human, wild type; experiment: competition in co-IP from 293T cells with HA-SND1 and MYC-MTDH (m36 is the competitor); peptide at 50 uM; the sheet prints IP: MYC, the legend says anti-HA [26B, 26C, 26D]
# Description: 293 T cells were co-transfected with HA-SND1 and MYC-MTDH. After 48 hours, the cells were collected and subject to immunoprecipitation assay. Cell lysate was incubated with anti-HA antibody or IgG overnight followed by a two hour incubation with Protein A/G beads to pull down HA-SND1 protein. The beads were washed with lysis buffer and split into five fractions.
# The elution fractions and beads were collected for western blot. (FIGS. 26C and 26D) Cell lyaste was split into 6 fractions. One of the fractions was incubated with IgG and the rest were incubated with anti-HA antibody plus either buffer or indicated peptides. After 24 hours, the lysate was incubated with Protein A/G beads then the beads was washed followed by wash buffer. 50 uM of peptides was used in all the assays.
# [3] = biological target: T2, endogenous human SND1 (human breast …); experiment: competition in endogenous co-IP from MDA-MB-231 lysate (endogenous MTDH, m58, is the competitor); peptide at 50 uM; the sheet prints IP: MTDH, the legend says anti-SND1 [27B]
# Description: Breast cancer cells MDA-MB231 were collected and subjected to IP assay. (FIG. 27A) Cell lysate was incubated with anti-SND1 antibody or IgG overnight followed by 2 hr incubation with Protein A/G beads to pull down endogenous SND1 protein. The beads were washed with lysis buffer and split into 5 fractions. Each fraction was eluted with buffer or indicated peptides for 30 min. The elution fractions and beads were collected for WB. (FIG. 27B) Cell lyaste was split into 5 fractions, and incubated with anti-SND1 antibody plus either buffer or indicated peptides. After 24 hr, the lysate was incubated with Protein A/G beads then the beads were washed in wash buffer.
# The interaction interruption effects was confirmed by endogenous immunoprecipitation (IP) of a breast cancer cell line. Briefly, cell lysates from the breast cancer cell line MDA-MB-231 were collected and subjected to IP assay. FIG. 27A—Cell lysate was incubated with anti-SND1 antibody or IgG overnight followed by 2 hr incubation with Protein A/G beads to pull down endogenous SND1 protein. The beads was washed with lysis buffer and split into 5 fractions. Each fraction was eluted with buffer or indicated peptides for 30 min. The elution fractions and beads were collected for WB. FIG. 27B—Cell lyaste was split into 5 fractions, and incubated with anti-SND1 antibody plus either buffer or indicated peptides. […]
# [4] = biological target: T1, HA-SND1, full-length human, wild type; experiment: anti-HA co-IP (as printed on the sheet) from HEK293T lysate, western blot
# Excerpt: The proteins bound to GS4B were examined on SDS-PAGE and visualized by Coomassie blue staining. […] The bound proteins were examined as in (FIG. 22A). For both (FIG. 22A) and (FIG. 22B), experiments were repeated three times; representative results are shown. The normalized percentage of binding was averaged from three experiments; mean±SEM was shown below the data. (FIG. 22C) HEK293T cells were transfected with human HA-SND1, WT Myc-MTDH or Myc-MTDH with indicated single point mutation. […] (FIG. 22D) HEK293T cells were transfected with human Myc-MTDH, WT HA-SND1 or mutant HA-SND1 with indicated single point mutations or deletions. […]
# Immunoprecipitation and western blot: For in vivo immunoprecipitation (IP) experiments, cultured cells were washed in cold PBS and lysed in lysis buffer (20 mM Tris pH 7.4, 0.15 M NaCl, 1 mM EDTA, 1 mM EGTA, 1% Tx-100, 0.0025 M Na2P2O7, 1 mM β-glycerolphosphate, 1 mM Na3VO4, and 1 mM NaF) with an EDTA-free protease inhibitor mixture (Roche Applied Science) and PMSF. Cell lysates were then incubated on ice for 10 min, centrifuged, and precleared by incubating with protein A/G beads (Santa Cruz Biotechnology) for 1 h at 4° C. For IP bead preparation, 30 μl of protein A/G beads were incubated with 5 μg of antibodies for 2 h at 4° C. […]
# [5] = biological target: human AGO2 (ectopically expressed in HEK293T cells) (human, UniProt Q9UKV8 1-859); experiment: co-IP (anti-Myc) from HEK293T lysates, western blot
# human AGO2 (ectopically expressed in HEK293T cells), sequence (Q9UKV8 whole entry): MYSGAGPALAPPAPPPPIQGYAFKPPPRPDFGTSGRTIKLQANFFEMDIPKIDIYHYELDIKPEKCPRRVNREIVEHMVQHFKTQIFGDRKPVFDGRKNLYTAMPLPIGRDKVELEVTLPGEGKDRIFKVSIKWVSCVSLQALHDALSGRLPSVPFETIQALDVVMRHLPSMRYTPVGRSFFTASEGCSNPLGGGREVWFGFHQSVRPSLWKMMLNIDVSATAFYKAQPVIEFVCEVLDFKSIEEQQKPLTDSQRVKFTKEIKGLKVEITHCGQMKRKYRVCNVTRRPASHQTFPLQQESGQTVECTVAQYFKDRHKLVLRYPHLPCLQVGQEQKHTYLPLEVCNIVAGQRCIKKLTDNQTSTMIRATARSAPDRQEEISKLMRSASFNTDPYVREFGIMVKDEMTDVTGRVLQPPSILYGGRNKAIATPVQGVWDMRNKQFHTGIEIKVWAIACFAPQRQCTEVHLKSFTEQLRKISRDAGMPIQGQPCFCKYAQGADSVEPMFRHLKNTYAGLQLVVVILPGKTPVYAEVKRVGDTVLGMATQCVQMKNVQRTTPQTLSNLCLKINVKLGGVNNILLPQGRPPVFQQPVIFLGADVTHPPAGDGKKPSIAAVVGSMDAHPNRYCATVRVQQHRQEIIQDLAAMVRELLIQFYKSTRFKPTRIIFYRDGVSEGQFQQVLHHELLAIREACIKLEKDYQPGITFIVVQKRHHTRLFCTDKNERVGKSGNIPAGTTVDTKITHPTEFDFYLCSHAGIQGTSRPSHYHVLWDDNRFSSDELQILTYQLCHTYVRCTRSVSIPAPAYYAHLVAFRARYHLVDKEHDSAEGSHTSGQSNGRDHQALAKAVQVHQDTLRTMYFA
# [6] = biological target: T1, HA-SND1, full-length human, wild type; experiment: as above
# [7] = biological target: TC-FLASH-SND1 (tetracysteine peptide fused to SND1 (16-339), labelled with FlAsH) (human) (UniProt Q7KZF4); experiment: FRET, 0.2 µM CFP-MTDH titrated with TC-FLASH-SND1 (0.25-8 µM)
molecule,measurement,setting,value
PAE (397-399)→SQ,Estimated Binding Affinity,[1],0.8 µM
PNSDWNAPAEEWGNW (also called wild type MTDH peptide) [Peptide-wt (PNSDWNAPAEEWGNW)],binding result,[2],binds
same,binding result,[3],binds
B1,binding result,[4],binds
B2,binding result,[5],binds
same,binding result,[6],no binding
B3,binding result,[4],binds
B4,binding result,[5],binds
same,binding result,[6],no binding
"{CFP}-SSADPNSDWNAPAEEWGNWVDE (peptide, not shown: large carriers, also: fused to CFP, whose letters are not given here) [CFP-MTDH fusion protein]",Kd,[7],900 nM
